# Reference: publication PMC11933844, “Autosuppression of MdNAC18.1 endowed by a 61‐bp promoter fragment duplication delays maturity date in apple”
# Changes are numbered by the printed parent chain.
# T1: MdNAC72 (UniProt A0A498KB81 69-407)
# T1 sequence: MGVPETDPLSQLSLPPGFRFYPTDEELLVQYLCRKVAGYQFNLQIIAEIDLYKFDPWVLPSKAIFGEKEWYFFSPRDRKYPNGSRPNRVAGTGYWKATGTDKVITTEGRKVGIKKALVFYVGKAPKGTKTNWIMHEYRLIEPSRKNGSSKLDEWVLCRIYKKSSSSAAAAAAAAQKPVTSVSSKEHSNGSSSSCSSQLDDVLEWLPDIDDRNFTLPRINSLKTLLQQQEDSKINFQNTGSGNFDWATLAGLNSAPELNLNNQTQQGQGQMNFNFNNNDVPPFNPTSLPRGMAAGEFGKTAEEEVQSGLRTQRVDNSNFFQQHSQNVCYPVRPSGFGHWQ
# B1: MdACO1-like promoter probe mutant (dsDNA)
# DNA 1: TCAAGTACCATAACAAAAAATAACTTGCAAAGTTCC
# DNA 2: GGAACTTTGCAAGTTATTTTTTGTTATGGTACTTGA
# B2: MdMYC2 promoter probe NACBS1 (dsDNA)
# DNA 1: TCTGGGATCCTGGTTTCACGGGTTTTCGAGGTTTTC
# DNA 2: GAAAACCTCGAAAACCCGTGAAACCAGGATCCCAGA
# B3: MdNAC18.1 P promoter probe mutant (dsDNA)
# DNA 1: GACATACAATGTTCTGATTCGTATGAGATAACTTAA
# DNA 2: TTAAGTTATCTCATACGAATCAGAACATTGTATGTC
# B4: MdACS1 promoter probe mutant (dsDNA)
# DNA 1: GTACACTTATAATAAAAAAACAAGTTTGTAGGTAAT
# DNA 2: ATTACCTACAAACTTGTTTTTTTATTATAAGTGTAC
# B5: MdACO1-like promoter probe NACBS1 (dsDNA)
# DNA 1: B1 DNA 1 with A15T, A17C, A19C, A20G
# DNA 2: B1 DNA 2 with T17C, T18G, T20G, T22A
# B6: MdNAC18.1 P promoter probe (CTAAC) (dsDNA)
# DNA 1: GACATACAATGTTCTGATTCGTATTCTAACACTTAA
# DNA 2: TTAAGTGTTAGAATACGAATCAGAACATTGTATGTC
# B7: MdACS1 promoter probe NACBS5 (dsDNA)
# DNA 1: GTACACTTATAATCCCCACGCAAGTTTGTAGGTAAT
# DNA 2: ATTACCTACAAACTTGCGTGGGGATTATAAGTGTAC
# B8: MdNAC72 promoter probe NACBS1 (dsDNA)
# DNA 1: TATTGACCCACATTTGCACGTAGCCTTGTAAACTTG
# DNA 2: CAAGTTTACAAGGCTACGTGCAAATGTGGGTCAATA
# Biological target: MdNAC18.1 (UniProt A0A498K6T8 1-364)
# Sequence (A0A498K6T8 entry or part of it): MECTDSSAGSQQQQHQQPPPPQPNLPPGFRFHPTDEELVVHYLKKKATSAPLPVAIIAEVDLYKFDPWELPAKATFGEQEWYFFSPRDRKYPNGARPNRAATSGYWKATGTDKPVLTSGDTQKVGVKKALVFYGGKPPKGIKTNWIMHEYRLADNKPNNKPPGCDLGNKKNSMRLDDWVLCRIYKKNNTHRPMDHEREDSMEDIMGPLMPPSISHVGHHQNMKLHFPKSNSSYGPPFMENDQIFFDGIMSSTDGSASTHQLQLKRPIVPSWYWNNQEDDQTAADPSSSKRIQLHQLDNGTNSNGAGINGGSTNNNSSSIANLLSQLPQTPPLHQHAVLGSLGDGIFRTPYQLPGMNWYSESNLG
# Experiment: EMSA; Beyotime Chemiluminescent EMSA Kit GS009; buffer, salt, pH and temperature not stated
# Settings: protein: recombinant; tags: His (pET32A); chain copies: 2; blunt
row,Binder,binding result
1,B1,no binding
2,B2,binds
3,B3,no binding
4,B4,no binding

# Same assay, conditions: protein: recombinant; tags: His (pET32A); chain copies: 2; label: 3' biotin; blunt
row,Binder,binding result
1,B5,binds
2,B6,binds
3,B7,binds
4,B8,binds

# Biological target: T1, MdNAC72
# Experiment: as above
# Settings: protein: recombinant; tags: His (pET32A); chain copies: 2; label: 3' biotin; blunt
row,Binder,binding result
1,B5,binds
